Measured values published in publication PMC12262048, “Nodal modulator (NOMO) is a force-bearing transmembrane protein required for muscle differentiation” (The Journal of Cell Biology, 2025).
Values joined by “and” are separate entries in the source; they are usually repeats but may differ in a detail not shown here. Equal entries are not always repeated.

T1: His6-Ig 1–2 (NOMO1 Ig-like domains 1–2) (human)
T1 chain: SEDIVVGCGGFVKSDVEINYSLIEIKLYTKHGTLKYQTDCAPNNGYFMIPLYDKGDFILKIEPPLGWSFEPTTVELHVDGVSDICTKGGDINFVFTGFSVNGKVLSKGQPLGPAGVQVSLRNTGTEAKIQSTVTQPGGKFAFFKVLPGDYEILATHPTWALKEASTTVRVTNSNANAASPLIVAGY

T2: His6-Ig 10–11 (NOMO1 Ig-like domains 10–11) (human)
T2 chain: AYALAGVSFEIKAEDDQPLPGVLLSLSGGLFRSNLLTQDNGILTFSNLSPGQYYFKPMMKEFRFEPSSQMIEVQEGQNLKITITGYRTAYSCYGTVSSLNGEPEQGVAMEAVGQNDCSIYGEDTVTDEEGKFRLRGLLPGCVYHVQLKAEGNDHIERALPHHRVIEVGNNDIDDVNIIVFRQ


Assays:
[1] = target: the molecule itself; experiment: SEC-MALS; room temperature; 50 mM MES pH 6.0, 150 mM KCl, 5 mM CaCl2, 5 mM MgCl2, 2% glycerol, 0.05% DDM; 1–1.5 mg/ml; molar mass corrected for detergent
[2] = target: T1, His6-Ig 1–2 (NOMO1 Ig-like domains 1–2); experiment: ITC; VP-ITC, 25°C; 300 µM His6-Ig 10–11 injected from the syringe into the cell with 20 µM His6-Ig 1–2 or His6-Ig 1–2^3-Mut; 50 mM Tris-HCl pH 7.5, 100 mM NaCl, 5 mM MgCl2, 5 mM CaCl2; n = 3; settings: both partners purified
[3] = target: T2, His6-Ig 10–11 (NOMO1 Ig-like domains …); experiment: ITC

Binder | stoichiometry N [1] | further results
FL WT NOMO (NOMO1^WT-FLAG) (natural protein, human, UniProt Q15155 32-1222, looked up, NOMO1 (nodal modulator 1), human, full length; Results and legend call it NOMO-FLAG, the methods Flag-NOMO^WT: the end of the tag is not clear; also called WT NOMO-FLAG; Flag-NOMO^WT; source: Expi293F, transfected, purified (anti-FLAG M2 beads, FLAG peptide elution, SEC) in DDM) SEDIVVGCGGFVKSDVEINYSLIEIKLYTKHGTLKYQTDCAPNNGYFMIPLYDKGDFILKIEPPLGWSFEPTTVELHVDGVSDICTKGGDINFVFTGFSVNGKVLSKGQPLGPAGVQVSLRNTGTEAKIQSTVTQPGGKFAFFKVLPGDYEILATHPTWALKEASTTVRVTNSNANAASPLIVAGYNVSGSVRSDGEPMKGVKFLLFSSLVTKEDVLGCNVSPVPGFQPQDESLVYLCYTVSREDGSFSFYSLPSGGYTVIPFYRGERITFDVAPSRLDFTVEHDSLKIEPVFHVMGFSVTGRVLNGPEGDGVPEAVVTLNNQIKVKTKADGSFRLENITTGTYTIHAQKEHLYFETVTIKIAPNTPQLADIIATGFSVCGQISIIRFPDTVKQMNKYKVVLSSQDKDKSLVTVETDAHGSFCFKAKPGTYKVQVMVPEAETRAGLTLKPQTFPLTVTNRPMMDVAFVQFLASVSGKVSCLDTCGDLLVTLQSLSRQGEKRSLQLSGKVNAMTFTFDNVLPGKYKISIMHEDWCWKNKSLEVEVLEDDMSAVEFRQTGYMLRCSLSHAITLEFYQDGNGRENVGIYNLSKGVNRFCLSKPGVYKVTPRSCHRFEQAFYTYDTSSPSILTLTAIRHHVLGTITTDKMMDVTVTIKSSIDSEPALVLGPLKSVQELRREQQLAEIEARRQEREKNGNEEGEERMTKPPVQEMVDELQGPFSYDFSYWARSGEKITVTPSSKELLFYPPSMEAVVSGESCPGKLIEIHGKAGLFLEGQIHPELEGVEIVISEKGASSPLITVFTDDKGAYSVGPLHSDLEYTVTSQKEGYVLTAVEGTIGDFKAYALAGVSFEIKAEDDQPLPGVLLSLSGGLFRSNLLTQDNGILTFSNLSPGQYYFKPMMKEFRFEPSSQMIEVQEGQNLKITITGYRTAYSCYGTVSSLNGEPEQGVAMEAVGQNDCSIYGEDTVTDEEGKFRLRGLLPGCVYHVQLKAEGNDHIERALPHHRVIEVGNNDIDDVNIIVFRQINQFDLSGNVITSSEYLPTLWVKLYKSENLDNPIQTVSLGQSLFFHFPPLLRDGENYVVLLDSTLPRSQYDYILPQVSFTAVGYHKHITLIFNPTRKLPEQDIAQGSYIALPLTLLVLLAGYNHDKLIPLLLQLTSRLQGVRALGQAASDNSGPEDAKRQAKKQKTRRT | 2 | 
NOMOr^4-Mut-FLAG (FL NOMO1 K66E, D70K, D121K, K931E) (natural protein, human, UniProt Q15155 32-1222, looked up, NOMO1, human, full length, four charge-reversal mutations at the Ig 1/10/11 interface; Results and legend call it -FLAG, the methods Flag-NOMO^4-Mut: the end of the tag is not clear; also called NOMO^4Mut-FLAG; Flag-NOMO^4-Mut; source: Expi293F, transfected, purified (anti-FLAG M2 beads, FLAG peptide elution, SEC) in DDM) SEDIVVGCGGFVKSDVEINYSLIEIKLYTKHGTLEYQTKCAPNNGYFMIPLYDKGDFILKIEPPLGWSFEPTTVELHVDGVSDICTKGGKINFVFTGFSVNGKVLSKGQPLGPAGVQVSLRNTGTEAKIQSTVTQPGGKFAFFKVLPGDYEILATHPTWALKEASTTVRVTNSNANAASPLIVAGYNVSGSVRSDGEPMKGVKFLLFSSLVTKEDVLGCNVSPVPGFQPQDESLVYLCYTVSREDGSFSFYSLPSGGYTVIPFYRGERITFDVAPSRLDFTVEHDSLKIEPVFHVMGFSVTGRVLNGPEGDGVPEAVVTLNNQIKVKTKADGSFRLENITTGTYTIHAQKEHLYFETVTIKIAPNTPQLADIIATGFSVCGQISIIRFPDTVKQMNKYKVVLSSQDKDKSLVTVETDAHGSFCFKAKPGTYKVQVMVPEAETRAGLTLKPQTFPLTVTNRPMMDVAFVQFLASVSGKVSCLDTCGDLLVTLQSLSRQGEKRSLQLSGKVNAMTFTFDNVLPGKYKISIMHEDWCWKNKSLEVEVLEDDMSAVEFRQTGYMLRCSLSHAITLEFYQDGNGRENVGIYNLSKGVNRFCLSKPGVYKVTPRSCHRFEQAFYTYDTSSPSILTLTAIRHHVLGTITTDKMMDVTVTIKSSIDSEPALVLGPLKSVQELRREQQLAEIEARRQEREKNGNEEGEERMTKPPVQEMVDELQGPFSYDFSYWARSGEKITVTPSSKELLFYPPSMEAVVSGESCPGKLIEIHGKAGLFLEGQIHPELEGVEIVISEKGASSPLITVFTDDKGAYSVGPLHSDLEYTVTSQKEGYVLTAVEGTIGDFKAYALAGVSFEIKAEDDQPLPGVLLSLSGGLFRSNLLTQDNGILTFSNLSPGQYYFKPMMEEFRFEPSSQMIEVQEGQNLKITITGYRTAYSCYGTVSSLNGEPEQGVAMEAVGQNDCSIYGEDTVTDEEGKFRLRGLLPGCVYHVQLKAEGNDHIERALPHHRVIEVGNNDIDDVNIIVFRQINQFDLSGNVITSSEYLPTLWVKLYKSENLDNPIQTVSLGQSLFFHFPPLLRDGENYVVLLDSTLPRSQYDYILPQVSFTAVGYHKHITLIFNPTRKLPEQDIAQGSYIALPLTLLVLLAGYNHDKLIPLLLQLTSRLQGVRALGQAASDNSGPEDAKRQAKKQKTRRT | 2 | 
His6-Ig 10–11 (NOMO1 Ig-like domains 10–11) (domain or fragment, N-terminal His6 tag omitted; limits not given, set from Ig fold boundaries and the ~20 kD size of Ig 10-11 / N-terminal His6 tag omitted; limits not given, taken from signal peptide end to the Ig) AYALAGVSFEIKAEDDQPLPGVLLSLSGGLFRSNLLTQDNGILTFSNLSPGQYYFKPMMKEFRFEPSSQMIEVQEGQNLKITITGYRTAYSCYGTVSSLNGEPEQGVAMEAVGQNDCSIYGEDTVTDEEGKFRLRGLLPGCVYHVQLKAEGNDHIERALPHHRVIEVGNNDIDDVNIIVFRQ |  | Kd [2]: 1830 ± 840 nM
His6-Ig 1–2 (NOMO1 Ig-like domains 1–2) (domain or fragment, N-terminal His6 tag omitted; limits not given, taken from signal peptide end to the Ig 2/Ig 3 boundary N-terminal His6 tag omitted; limits not given, set from Ig fold boundaries and the ~20 kD size of Ig 10-11) SEDIVVGCGGFVKSDVEINYSLIEIKLYTKHGTLKYQTDCAPNNGYFMIPLYDKGDFILKIEPPLGWSFEPTTVELHVDGVSDICTKGGDINFVFTGFSVNGKVLSKGQPLGPAGVQVSLRNTGTEAKIQSTVTQPGGKFAFFKVLPGDYEILATHPTWALKEASTTVRVTNSNANAASPLIVAGY |  | Kd [3]: 2800 nM and 1400 nM and 1300 nM
